According to paper PMC3680494, “Genomics-Guided Analysis of NAD Recycling Yields Functional Elucidation of COG1058 as a New Family of Pyrophosphatases” (PLoS ONE, 2013):

Substrate: Nc1ncnc2c1ncn2[C@@H]1O[C@H](CO[P@](=O)(O)O[P@](=O)(O)OC[C@H]2O[C@@H](n3cnc4c(N)ncnc43)[C@H](O)[C@@H]2O)[C@@H](O)[C@H]1O
Experiment: HPLC of mononucleotide formed, Michaelis-Menten fit
Type: biochemical, Agrobacterium fabrum
Details: pH 7.5 (100 mM TRIS/HCl), 1 mM CoCl2, 100 mM KCl, 37°C

B1: AtCOG1058 (Agrobacterium fabrum str. C58) (protein)
chain: MSNPSSTSSVVTAAMLAIGDELLSGRTKDKNIGHLADVLTMSGIDLKEVRIVADEEESIVEALNALRSRYDYVFTSGGIGPTHDDITADAISAAFGLPCEHDAEALRLLGDMYRVREMEFTEARKRMARMPKGAAHIANPVSVAPGFVIGNVYVMAGVPQVFQAMLDNVMPTLRTGAKVMSQAVRSPYGEGDIGTPLTAIQKAHPETSIGSYPKYDGQRFSTEIVVRARDAGLLKAATEAVAAMIEAIGQEKQLAASKGDATA
notes: stand-alone COG1058 protein cloned from genomic DNA in pET100/D-TOPO; N-terminal His tag; E. coli BL21(DE3); HisTrap purified
  Km: 210 ± 22 µM
  kcat: 5.6 ± 0.7 s⁻¹
